Results as given in patent publication US20190022245A1 (ACADEMIA SINICA, published 2019).

Legend:
[1] = target: T1, human epidermal growth factor receptor (HER2) on cells (human, UniProt P04626 23-1255); assay: flow cytometry on BT-474 cells
T1 construct: whole, on cells; also called HER2/Neu; Her2/neu

[2] = target: T1, human epidermal growth factor receptor …; assay: culture medium on BT-474 cells (HER2 positive), FITC anti-human Ig
Experimental: (§1) The binding specificity of monovalent BsAbs with their target proteins was measured by collecting the culture medium of BsAbs producing cells, adding the collected medium to cells that expressed the target protein, then determining the binding by […]. After washing the cells, the bound BsAbs were detected by FITC-labeled goat anti-human immunoglobulin second antibody. […] Thus, monovalent anti-PEG (hE11) BsAbs bound to target cells in an antigen-dependent and selective manner.

[3] = target: T2, epidermal growth factor receptor (EGFR) on cells (human (on human cell lines), UniProt P00533 25-1210); assay: culture medium on MDA-MB-468 cells (EGFR positive), FITC anti-human Ig
T2 construct: whole, on cells
Experimental: as §1

[4] = target: T3, BSA (control protein coated on ELISA plates) (UniProt P02769 25-607); assay: ELISA, BSA-coated plate, graded concentrations
T3 construct: also called control BSA protein
T3 sequence (P02769 25-607 limits assumed): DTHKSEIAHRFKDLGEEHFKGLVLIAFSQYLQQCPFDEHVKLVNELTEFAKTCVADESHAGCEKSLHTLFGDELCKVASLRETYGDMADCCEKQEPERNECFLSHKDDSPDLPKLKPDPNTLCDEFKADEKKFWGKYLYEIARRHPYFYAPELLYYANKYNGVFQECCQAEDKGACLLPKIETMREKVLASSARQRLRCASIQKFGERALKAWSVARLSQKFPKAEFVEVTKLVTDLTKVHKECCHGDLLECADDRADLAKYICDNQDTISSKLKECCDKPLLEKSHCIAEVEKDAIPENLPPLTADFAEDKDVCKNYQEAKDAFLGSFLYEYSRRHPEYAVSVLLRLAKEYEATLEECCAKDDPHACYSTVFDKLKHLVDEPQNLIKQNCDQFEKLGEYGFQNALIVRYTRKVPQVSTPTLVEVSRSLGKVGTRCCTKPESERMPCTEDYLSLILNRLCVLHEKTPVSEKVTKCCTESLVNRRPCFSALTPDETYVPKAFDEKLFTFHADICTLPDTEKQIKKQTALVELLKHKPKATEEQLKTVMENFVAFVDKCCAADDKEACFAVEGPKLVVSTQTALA
Experimental: The anti-PEG binding specificity of BsAbs was measured by adding graded concentrations of PEG2×TAG72,PEG2×DNS, hCC49 scFv, h6.3Fab×EGFR or h6.3Fab×CD19 in 50 μL 2% skim milk to the mucin, BSA-PEG5000, NH₂-PEG₃ₖ-NH₂ or BSA coated plates at RT for 1 h. The plates were washed with PBS-T (PBS containing 0.05% Tween-20) three times. Rabbit anti-6×His (2 μg/mL) supplemented with HRP-conjugated goat anti-rabbit (2 μg/mL) or HRP-conjugated goat Ig anti human IgG Fab (2 μg/mL) (Jackson ImmunoResearch Laboratories, West Grove, Pa.) in 50 μL dilution buffer were added for 1 h at room temperature. The plates were washed with PBS-T (PBS containing 0.05% Tween-20) three times and with PBS two times. Bound peroxidase activity was measured by adding 150 μL/well ABTS substrate solution (BioLegend, San Diego, Calif.) for 30 min at room temperature. The absorbance (405 nm) of wells was measured in a microplate reader (Molecular Device, Menlo Park, Calif.).
Further, both h6-3Fab×EGFR and h6.3Fab×CD19 BsAbs bound to the NH₂-PEG_{10,000}-NH2, but not to the control BSA protein, indicating their binding specificity toward PEG molecule (FIGS. 14A and 14B). […] The PEG-binding kinetics of h6-3Fab×EGFR and h6.3Fab×CD19 BsAbs were verified by Microscale Thermophoresis (MST) (FIGS. 14D and 14E).

[5] = target: T2, epidermal growth factor receptor (EGFR) …; assay: flow cytometry, BsAb on A431 cells then PEG-liposome Texas Red or PEG-Qdot655
Experimental: PEG2×TAG72 or control PEG2×DNS BsAbs (10 μg/mL) were incubated with A-375(TAG72-), MCF-7(TAG72+), Jurkat (TAG72+) or OVCAR-3(TAG72+) cells at 4° C. for 30 min followed by FITC-labeled goat anti-human immunoglobulin second antibody (2 μg/m L) (Jackson ImmunoResearch Laboratories, West Grove, Pa.) or FITC-labeled 4arm-PEG (2 μg/mL). Tumor-specific targeting of PEGylated compounds was also examined by staining A431 (EGFR^high), and Raji (CD19^high) cell lines with 10 μg/mL of h6.3Fab×EGFR or h6.3Fab×CD19 BsAbs in PBS containing 0.05% BSA (staining buffer) at 4° C. for 30 min. The cells were washed with cold PBS for 3 times. PEG-Qdot655 (8 nM) (Invitrogen, Grand Island, N.Y.) or PEG-liposomal Texas-Red (100 nm size, 50 μM, lipid conc.) (FormuMax Scientific, Palo Alto, Calif.) in staining buffer was added to cells for 30 min at 4° C. […] After washing with cold PBS, the surface fluorescence of 10⁴ viable cells was measured by FACScaliber flow cytometer (Becton Dickinson, Mountain View, Calif., USA) then analyzed with Flowjo (Tree Star Inc., San Carlos, Calif., USA).
Further, both h6-3Fab×EGFR and h6.3Fab×CD19 BsAbs bound to the NH₂-PEG_{10,000}-NH2, but not to the control BSA protein, indicating their binding specificity toward PEG molecule (FIGS. 14A and 14B). […]

[6] = target: T1, human epidermal growth factor receptor …; assay: flow cytometry, 10 µg/ml BsAb, FITC anti-human IgG; also methoxy-PEG Qdot 655 retained at SKBR3 cells
[7] = target: T1, human epidermal growth factor receptor …; assay: flow cytometry on SKBR3 cells (HER2+), FITC anti-human IgG

B1: PEG2×HER2 (dimeric humanized anti-PEG (hE11) anti-HER2 BsAb) (bispecific antibody, human IgG1, kappa)
light: DVVMTQSPLSLPVTLGQPASISCRSSKSIVHSNGNTYLEWFQQRPGQSPRRLIYKVSKRMSGVPDRFSGSGSGTDFTLKISRVEAEDVGVYYCSQGSHVPPTFGGGTKVEIKRTVAAPSVFIFPPSDEQLKSGTASVVCLLNNFYPREAKVQWKVDNALQSGNSQESVTEQDSKDSTYSLSSTLTLSKADYEKHKLYACEVTHQGLSSPVTKSFNRGEC
heavy: not shown
notes: also called PEG2×HER2 BsAbs
- binding result [1]: binds

B2: PEGxTAG72 (monovalent anti-PEG (hE11) Fab fused to anti-TAG72 scFv, example 2.1) (bispecific antibody)
light: DVVMTQSPLSLPVTLGQPASISCRSSKSIVHSNGNTYLEWFQQRPGQSPRRLIYKVSKRMSGVPDRFSGSGSGTDFTLKISRVEAEDVGVYYCSQGSHVPPTFGGGTKVEIKRTVAAPSVFIFPPSDEQLKSGTASVVCLLNNFYPREAKVQWKVDNALQSGNSQESVTEQDSKDSTYSLSSTLTLSKADYEKHKLYACEVTHQGLSSPVTKSFNRGEC
heavy: QVQLVQSGAEVKKPGASVKVSCKASGYTFTTYTMNWVRQAPGQGLEWMGYIIPSSGYVDYNQKFKGRVTMTRDTSTSTVYMELSSLRSEDTAVYYCVRSLDGYFWFAYWGQGTLVTVSSASTKGPSVFPLAPSSKSTSGGTAALGCLVKDYFPEPVTVSWNSGALTSGVHTFPAVLQSSGLYSLSSVVTVPSSSLGTQTYICNVNHKPSNTKVDKRVVDLVTVSSASTGGGSGQLGGGGSQVQLVQSGAEVKKPGASVKVSCKASGYTFTDHAIHWVRQAPGQCLEWMGYFSPGNDDFKYSQKFQGRVTITADKSASTAYMELSSLRSEDTAVYYCARSWIMQYWGQGTLVTVSSGGGGSGGGGSGGGGSDIVMTQSPDSLAVSLGERATINCKSSQSVLYSSNNKNYLAWYQQKPGQPPKLLIYWASTRESGVPDRFSGSGSGTDFTLTISSLQAEDVAVYYCQQYYSYPLTFGCGTKVEIKTRHHHHHH
notes: Tested as culture medium of producer cells; also called PEG×TAG72; monovalent anti-PEG (hE11) BsAb
- binding result [2]: no binding
- binding result [3]: no binding

B3: h6.3 Fab × CD19 (monovalent anti-PEG (h6.3) anti-CD19 BsAb) (bispecific antibody)
light: DIVMTQSPDSLAVSLGERATINCKSSQSVLYSSNQMNYLAWYQQKPGQPPKLLIYWASTRESGVPDRFSGSGSGTDFTLTISSLQAEDVAVYYCLQYLSSWTFGGGTKLEIKTYSLSSTLTLSKADYEKHKLYACEVTHQGLSSPVTKSFNRGEC
heavy: QVQLVQSGSELKKPGASVKVSCKASGYTFKNYGMNWVRQAPGQGLEWMGWINTYTGQPIYANDFKGRFVFSLDTSVSTAYLQISSLKAEDTAVYYCARDWGPYWGQGTLVTVSSASTKGPSVFPLAPSSKSTSGGTAALGCLVKDYFPEPVTVSWNSGALTSGVHTFPAVLQSSGLYSLSSVVTVPSSSLGTQTYICNVNHKPSNTKVDKRVEPKSCDKVDLVTVSSASTGGGSGQLGGGGSQVQLQESGPGLVKPSQTLSLTCTVSGGSISTSGMGVGWIRQHPGKCLEWIGHIWWDDDKRYNPALKSRVTISVDTSKNQFSLKLSSVTAADTAVYYCARMELWSYYFDYWGQGTLVTVSSGGGGSGGGGSGGGGSEIVLTQSPATLSLSPGERATLSCSASSSVSYMHWYQQKPGQAPRLLIYDTSKLASGIPARFSGSGSGTDFTLTISSLEPEDVAVYYCFQGSVYPFTFGCGTKLEIKRTRHHHHHH
notes: Fab-dsFv; also called h6.3-hBU12
- binding result [4]: no binding
- binding result [5]: no binding (tested: 10 µg/mL)

B4: 15-2b knob/anti-HER2 hole (knob in hole anti-mPEG (h15-2b) anti-HER2 BsAb) (bispecific antibody)
light 1: DIQMTQSPSSLSASVGDRVTITCKASQDVNTSVAWYQQKPGKAPKLLIYWASTRHTGVPSRFSGSGSGTDFTFTISSLQPEDIATYYCLQYINYPYTFGQGTKLEIKRTVAAPSVFIFPPSDEQLKSGTASVVCLLNNFYPREAKVQWKVDNALQSGNSQESVTEQDSKDSTYSLSSTLTLSKADYEKHKLYACEVTHQGLSSPVTKSFNRGEC
heavy 1: not shown
light 2: QSVLTQPPSVSAAPGQKVTISCSGSSSNIGNNYVSWYQQLPGTAPKLLIYDHTNRPAGVPDRFSGSKSGTSASLAISGFRSEDEADYYCASWDYTLSGWVFGGGTKLTVLGSSASTKGPSVFPLAPSSKSTSGGTAALGCLVKDYFPEPVTVSWNSGALTSGVHTFPAVLQSSGLYSLSSVVTVPSSSLGTQTYICNVNHKPSNTKVDKKV
heavy 2: not shown
notes: Four different chains; also called h15-2b-knob/anti-HER2-hole; h15-2b-knob/anti-Her2-hole; not shown: HA tag fused at the N terminal of the hole heavy chain
- binding result [6]: binds

B5: 15-2b knob/Bu12 hole (knob in hole anti-mPEG (h15-2b) anti-CD19 BsAb) (bispecific antibody)
light 1: DIQMTQSPSSLSASVGDRVTITCKASQDVNTSVAWYQQKPGKAPKLLIYWASTRHTGVPSRFSGSGSGTDFTFTISSLQPEDIATYYCLQYINYPYTFGQGTKLEIKRTVAAPSVFIFPPSDEQLKSGTASVVCLLNNFYPREAKVQWKVDNALQSGNSQESVTEQDSKDSTYSLSSTLTLSKADYEKHKLYACEVTHQGLSSPVTKSFNRGEC
heavy 1: not shown
light 2: EIVLTQSPATLSLSPGERATLSCSASSSVSYMHWYQQKPGQAPRLLIYDTSKLASGIPARFSGSGSGTDFTLTISSLEPEDVAVYYCFQGSVYPFTFGQGTKLEIKRSSASTKGPSVFPLAPSSKSTSGGTAALGCLVKDYFPEPVTVSWNSGALTSGVHTFPAVLQSSGLYSLSSVVTVPSSSLGTQTYICNVNHKPSNTKVDKKV
heavy 2: not shown
notes: Four different chains; also called h15-2b-knob/BU12-hole; h15-2b knob+BU12-hole; not shown: HA tag fused at the N terminal of the hole heavy chain
- binding result [7]: no binding (tested: 10 µg/ml)
